One molecule from patent US20120100132A1 (INDUSTRIAL TECHNOLOGY RESEARCH INSTITUTE, published 2012) can be followed below.

For the experiment, the target named is T1, uncleavable form of transmembrane TNF-α (deletion mutant, amino acids +1 through +12 deleted) expressed on … (UniProt P01375 1-233).
T1 construct: whole, on cells; The deletion of +1 to +12 cannot be written as substitutions, so it is described under detail; also called deletion mutant transmembrane TNF-α resistant to TACE-mediated cleavage
The experiment in a line: flow cytometry saturation binding on transmembrane TNF-α-transfected NS0 cells. The protocol:
Transmembrane TNF-α-transfected NS0 cells were incubated with serial log dilutions of m357-IgG (∘) or h357-IgG antibodies for 1 hr at 4° C. The cells were washed and incubated with Alexa Fluor 488 goat anti-mouse IgG (H+L) for m357-IgG and Alexa Fluor 647 goat anti-human IgG (H+L) for h357-IgG, respectively for 1 hr at 4° C. The cell were then washed and analyzed by a FACSCalibur flow cytometer; and
Transmembrane TNF-α transfected NS0 cells were incubated with serial log dilutions of m357 IgG and h357 IgG for 1 hour at 4° C. in phosphate buffered saline (PBS) containing 2% of a fetal bovine serum (fluorescence-activated cell sorting [FACS] buffer). Cells were washed with a FACS buffer 3 times and were then stained with an Alexa Fluor 488 goat anti-mouse IgG (H+L) for m357 IgG and an Alexa Fluor 647 goat anti-human IgG (H+L) for h357 IgG, respectively for 1 hour at 4° C. Fluorescence intensities were measured using a FACSCalibur flow cytometer (Becton Dickinson, San Jose, Calif.).
TNF-α exists as a membrane associated precursor (transmembrane TNF-α) from which a mature soluble form is released by proteolytic cleavage mediated by the TNF-α converting enzyme (TACE). […]
Background: Flow cytometry measures light scatter and fluorescence of single cells or particles in a stream.

B1: m357 IgG (murine anti-human TNF-α monoclonal antibody from hybridoma 357-104-4, ECACC No. 92030603) (antibody, V domains shown)
VH: VKLQESGGGWVQPGGSMKLSCIASGFTFSNYWMNWVRQSPEKGLEWVAEVRLQSDNFTTHYAESVKGRFTISRDDSKSGVYLQMNNLGAEDTGIYYCTPFAYWGQGTTVTVSS
VL: EIVLTQSPPITSASPGEKVTMTCSASSSVSFMYWYQQKPGSSPRLLIYDASILASGVPVRFSGSGSGTSYSLTISRMEAEDVATYYCQQWSDYSPRTFGGGTKLEIK
notes: Whole murine IgG; also called m35-IgG
As usually defined, the Kd is the concentration at which binding is half-saturated. A lower Kd goes with a tighter complex. Molecule B1 displayed a Kd of 12 nM.
